Source: publication doi:10.1101/2022.06.02.494603 (bioRxiv, 2022)

target: optineurin, C-terminal myc-FLAG-tagged (UniProt Q96CV9 1-577); test: co-IP
Sequence (Q96CV9 whole entry): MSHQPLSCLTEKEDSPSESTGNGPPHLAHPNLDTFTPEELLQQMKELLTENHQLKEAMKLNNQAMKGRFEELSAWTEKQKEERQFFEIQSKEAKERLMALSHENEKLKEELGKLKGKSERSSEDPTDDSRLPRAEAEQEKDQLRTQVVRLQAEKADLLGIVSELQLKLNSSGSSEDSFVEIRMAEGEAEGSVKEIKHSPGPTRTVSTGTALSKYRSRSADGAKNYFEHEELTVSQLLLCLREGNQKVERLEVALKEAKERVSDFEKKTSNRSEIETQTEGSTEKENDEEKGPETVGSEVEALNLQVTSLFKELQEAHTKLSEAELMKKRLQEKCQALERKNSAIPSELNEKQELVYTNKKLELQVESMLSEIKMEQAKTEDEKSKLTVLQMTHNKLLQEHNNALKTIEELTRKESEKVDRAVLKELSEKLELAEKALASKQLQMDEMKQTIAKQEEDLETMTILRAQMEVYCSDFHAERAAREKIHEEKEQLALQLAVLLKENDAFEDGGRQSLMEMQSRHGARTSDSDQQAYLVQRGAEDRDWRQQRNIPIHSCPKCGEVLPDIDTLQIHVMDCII

Binder | TBK1 bound to OPTN relative to wild type
TBK1 I710N, untagged (natural protein, human, UniProt Q9UHD2 1-729, looked up) MQSTSNHLWLLSDILGQGATANVFRGRHKKTGDLFAIKVFNNISFLRPVDVQMREFEVLKKLNHKNIVKLFAIEEETTTRHKVLIMEFCPCGSLYTVLEEPSNAYGLPESEFLIVLRDVVGGMNHLRENGIVHRDIKPGNIMRVIGEDGQSVYKLTDFGAARELEDDEQFVSLYGTEEYLHPDMYERAVLRKDHQKKYGATVDLWSIGVTFYHAATGSLPFRPFEGPRRNKEVMYKIITGKPSGAISGVQKAENGPIDWSGDMPVSCSLSRGLQVLLTPVLANILEADQEKCWGFDQFFAETSDILHRMVIHVFSLQQMTAHKIYIHSYNTATIFHELVYKQTKIISSNQELIYEGRRLVLEPGRLAQHFPKTTEENPIFVVSREPLNTIGLIYEKISLPKVHPRYDLDGDASMAKAITGVVCYACRIASTLLLYQELMRKGIRWLIELIKDDYNETVHKKTEVVITLDFCIRNIEKTVKVYEKLMKINLEAAELGEISDIHTKLLRLSSSQGTIETSLQDIDSRLSPGGSLADAWAHQEGTHPKDRNVEKLQVLLNCMTEIYYQFKKDKAERRLAYNEEQIHKFDKQKLYYHATKAMTHFTDECVKKYEAFLNKSEEWIRKMLHLRKQLLSLTNQCFDIEEEVSKYQEYTNELQETLPQKMFTASSGIKHTMTPIYPSSNTLVEMTLGMKKLKEEMEGVVKELAENNHNLERFGSLTMDGGLRNVDCL | 0.07 relative to TBK1 WT
TBK1 Q581H, untagged (natural protein, human, UniProt Q9UHD2 1-729, looked up) MQSTSNHLWLLSDILGQGATANVFRGRHKKTGDLFAIKVFNNISFLRPVDVQMREFEVLKKLNHKNIVKLFAIEEETTTRHKVLIMEFCPCGSLYTVLEEPSNAYGLPESEFLIVLRDVVGGMNHLRENGIVHRDIKPGNIMRVIGEDGQSVYKLTDFGAARELEDDEQFVSLYGTEEYLHPDMYERAVLRKDHQKKYGATVDLWSIGVTFYHAATGSLPFRPFEGPRRNKEVMYKIITGKPSGAISGVQKAENGPIDWSGDMPVSCSLSRGLQVLLTPVLANILEADQEKCWGFDQFFAETSDILHRMVIHVFSLQQMTAHKIYIHSYNTATIFHELVYKQTKIISSNQELIYEGRRLVLEPGRLAQHFPKTTEENPIFVVSREPLNTIGLIYEKISLPKVHPRYDLDGDASMAKAITGVVCYACRIASTLLLYQELMRKGIRWLIELIKDDYNETVHKKTEVVITLDFCIRNIEKTVKVYEKLMKINLEAAELGEISDIHTKLLRLSSSQGTIETSLQDIDSRLSPGGSLADAWAHQEGTHPKDRNVEKLQVLLNCMTEIYYQFKKDKAERRLAYNEEHIHKFDKQKLYYHATKAMTHFTDECVKKYEAFLNKSEEWIRKMLHLRKQLLSLTNQCFDIEEEVSKYQEYTNELQETLPQKMFTASSGIKHTMTPIYPSSNTLVEMTLGMKKLKEEMEGVVKELAENNHILERFGSLTMDGGLRNVDCL | 0.2 relative to TBK1 WT
TBK1 R134H, untagged (natural protein, human, UniProt Q9UHD2 1-729, looked up) MQSTSNHLWLLSDILGQGATANVFRGRHKKTGDLFAIKVFNNISFLRPVDVQMREFEVLKKLNHKNIVKLFAIEEETTTRHKVLIMEFCPCGSLYTVLEEPSNAYGLPESEFLIVLRDVVGGMNHLRENGIVHHDIKPGNIMRVIGEDGQSVYKLTDFGAARELEDDEQFVSLYGTEEYLHPDMYERAVLRKDHQKKYGATVDLWSIGVTFYHAATGSLPFRPFEGPRRNKEVMYKIITGKPSGAISGVQKAENGPIDWSGDMPVSCSLSRGLQVLLTPVLANILEADQEKCWGFDQFFAETSDILHRMVIHVFSLQQMTAHKIYIHSYNTATIFHELVYKQTKIISSNQELIYEGRRLVLEPGRLAQHFPKTTEENPIFVVSREPLNTIGLIYEKISLPKVHPRYDLDGDASMAKAITGVVCYACRIASTLLLYQELMRKGIRWLIELIKDDYNETVHKKTEVVITLDFCIRNIEKTVKVYEKLMKINLEAAELGEISDIHTKLLRLSSSQGTIETSLQDIDSRLSPGGSLADAWAHQEGTHPKDRNVEKLQVLLNCMTEIYYQFKKDKAERRLAYNEEQIHKFDKQKLYYHATKAMTHFTDECVKKYEAFLNKSEEWIRKMLHLRKQLLSLTNQCFDIEEEVSKYQEYTNELQETLPQKMFTASSGIKHTMTPIYPSSNTLVEMTLGMKKLKEEMEGVVKELAENNHILERFGSLTMDGGLRNVDCL | 2.53 relative to TBK1 WT
TBK1 M559R, untagged (natural protein, human, UniProt Q9UHD2 1-729, looked up) MQSTSNHLWLLSDILGQGATANVFRGRHKKTGDLFAIKVFNNISFLRPVDVQMREFEVLKKLNHKNIVKLFAIEEETTTRHKVLIMEFCPCGSLYTVLEEPSNAYGLPESEFLIVLRDVVGGMNHLRENGIVHRDIKPGNIMRVIGEDGQSVYKLTDFGAARELEDDEQFVSLYGTEEYLHPDMYERAVLRKDHQKKYGATVDLWSIGVTFYHAATGSLPFRPFEGPRRNKEVMYKIITGKPSGAISGVQKAENGPIDWSGDMPVSCSLSRGLQVLLTPVLANILEADQEKCWGFDQFFAETSDILHRMVIHVFSLQQMTAHKIYIHSYNTATIFHELVYKQTKIISSNQELIYEGRRLVLEPGRLAQHFPKTTEENPIFVVSREPLNTIGLIYEKISLPKVHPRYDLDGDASMAKAITGVVCYACRIASTLLLYQELMRKGIRWLIELIKDDYNETVHKKTEVVITLDFCIRNIEKTVKVYEKLMKINLEAAELGEISDIHTKLLRLSSSQGTIETSLQDIDSRLSPGGSLADAWAHQEGTHPKDRNVEKLQVLLNCRTEIYYQFKKDKAERRLAYNEEQIHKFDKQKLYYHATKAMTHFTDECVKKYEAFLNKSEEWIRKMLHLRKQLLSLTNQCFDIEEEVSKYQEYTNELQETLPQKMFTASSGIKHTMTPIYPSSNTLVEMTLGMKKLKEEMEGVVKELAENNHILERFGSLTMDGGLRNVDCL | 0.05 relative to TBK1 WT
TBK1 L94S, untagged (natural protein, human, UniProt Q9UHD2 1-729, looked up) MQSTSNHLWLLSDILGQGATANVFRGRHKKTGDLFAIKVFNNISFLRPVDVQMREFEVLKKLNHKNIVKLFAIEEETTTRHKVLIMEFCPCGSSYTVLEEPSNAYGLPESEFLIVLRDVVGGMNHLRENGIVHRDIKPGNIMRVIGEDGQSVYKLTDFGAARELEDDEQFVSLYGTEEYLHPDMYERAVLRKDHQKKYGATVDLWSIGVTFYHAATGSLPFRPFEGPRRNKEVMYKIITGKPSGAISGVQKAENGPIDWSGDMPVSCSLSRGLQVLLTPVLANILEADQEKCWGFDQFFAETSDILHRMVIHVFSLQQMTAHKIYIHSYNTATIFHELVYKQTKIISSNQELIYEGRRLVLEPGRLAQHFPKTTEENPIFVVSREPLNTIGLIYEKISLPKVHPRYDLDGDASMAKAITGVVCYACRIASTLLLYQELMRKGIRWLIELIKDDYNETVHKKTEVVITLDFCIRNIEKTVKVYEKLMKINLEAAELGEISDIHTKLLRLSSSQGTIETSLQDIDSRLSPGGSLADAWAHQEGTHPKDRNVEKLQVLLNCMTEIYYQFKKDKAERRLAYNEEQIHKFDKQKLYYHATKAMTHFTDECVKKYEAFLNKSEEWIRKMLHLRKQLLSLTNQCFDIEEEVSKYQEYTNELQETLPQKMFTASSGIKHTMTPIYPSSNTLVEMTLGMKKLKEEMEGVVKELAENNHILERFGSLTMDGGLRNVDCL | 0.04 relative to TBK1 WT
TBK1 Q565P, untagged (natural protein, human, UniProt Q9UHD2 1-729, looked up) MQSTSNHLWLLSDILGQGATANVFRGRHKKTGDLFAIKVFNNISFLRPVDVQMREFEVLKKLNHKNIVKLFAIEEETTTRHKVLIMEFCPCGSLYTVLEEPSNAYGLPESEFLIVLRDVVGGMNHLRENGIVHRDIKPGNIMRVIGEDGQSVYKLTDFGAARELEDDEQFVSLYGTEEYLHPDMYERAVLRKDHQKKYGATVDLWSIGVTFYHAATGSLPFRPFEGPRRNKEVMYKIITGKPSGAISGVQKAENGPIDWSGDMPVSCSLSRGLQVLLTPVLANILEADQEKCWGFDQFFAETSDILHRMVIHVFSLQQMTAHKIYIHSYNTATIFHELVYKQTKIISSNQELIYEGRRLVLEPGRLAQHFPKTTEENPIFVVSREPLNTIGLIYEKISLPKVHPRYDLDGDASMAKAITGVVCYACRIASTLLLYQELMRKGIRWLIELIKDDYNETVHKKTEVVITLDFCIRNIEKTVKVYEKLMKINLEAAELGEISDIHTKLLRLSSSQGTIETSLQDIDSRLSPGGSLADAWAHQEGTHPKDRNVEKLQVLLNCMTEIYYPFKKDKAERRLAYNEEQIHKFDKQKLYYHATKAMTHFTDECVKKYEAFLNKSEEWIRKMLHLRKQLLSLTNQCFDIEEEVSKYQEYTNELQETLPQKMFTASSGIKHTMTPIYPSSNTLVEMTLGMKKLKEEMEGVVKELAENNHILERFGSLTMDGGLRNVDCL | 0.14 relative to TBK1 WT
TBK1 R47H, untagged (natural protein, human, UniProt Q9UHD2 1-729, looked up) MQSTSNHLWLLSDILGQGATANVFRGRHKKTGDLFAIKVFNNISFLHPVDVQMREFEVLKKLNHKNIVKLFAIEEETTTRHKVLIMEFCPCGSLYTVLEEPSNAYGLPESEFLIVLRDVVGGMNHLRENGIVHRDIKPGNIMRVIGEDGQSVYKLTDFGAARELEDDEQFVSLYGTEEYLHPDMYERAVLRKDHQKKYGATVDLWSIGVTFYHAATGSLPFRPFEGPRRNKEVMYKIITGKPSGAISGVQKAENGPIDWSGDMPVSCSLSRGLQVLLTPVLANILEADQEKCWGFDQFFAETSDILHRMVIHVFSLQQMTAHKIYIHSYNTATIFHELVYKQTKIISSNQELIYEGRRLVLEPGRLAQHFPKTTEENPIFVVSREPLNTIGLIYEKISLPKVHPRYDLDGDASMAKAITGVVCYACRIASTLLLYQELMRKGIRWLIELIKDDYNETVHKKTEVVITLDFCIRNIEKTVKVYEKLMKINLEAAELGEISDIHTKLLRLSSSQGTIETSLQDIDSRLSPGGSLADAWAHQEGTHPKDRNVEKLQVLLNCMTEIYYQFKKDKAERRLAYNEEQIHKFDKQKLYYHATKAMTHFTDECVKKYEAFLNKSEEWIRKMLHLRKQLLSLTNQCFDIEEEVSKYQEYTNELQETLPQKMFTASSGIKHTMTPIYPSSNTLVEMTLGMKKLKEEMEGVVKELAENNHILERFGSLTMDGGLRNVDCL | 3.23 relative to TBK1 WT
TBK1 R440Q, untagged (natural protein, human, UniProt Q9UHD2 1-729, looked up) MQSTSNHLWLLSDILGQGATANVFRGRHKKTGDLFAIKVFNNISFLRPVDVQMREFEVLKKLNHKNIVKLFAIEEETTTRHKVLIMEFCPCGSLYTVLEEPSNAYGLPESEFLIVLRDVVGGMNHLRENGIVHRDIKPGNIMRVIGEDGQSVYKLTDFGAARELEDDEQFVSLYGTEEYLHPDMYERAVLRKDHQKKYGATVDLWSIGVTFYHAATGSLPFRPFEGPRRNKEVMYKIITGKPSGAISGVQKAENGPIDWSGDMPVSCSLSRGLQVLLTPVLANILEADQEKCWGFDQFFAETSDILHRMVIHVFSLQQMTAHKIYIHSYNTATIFHELVYKQTKIISSNQELIYEGRRLVLEPGRLAQHFPKTTEENPIFVVSREPLNTIGLIYEKISLPKVHPRYDLDGDASMAKAITGVVCYACRIASTLLLYQELMQKGIRWLIELIKDDYNETVHKKTEVVITLDFCIRNIEKTVKVYEKLMKINLEAAELGEISDIHTKLLRLSSSQGTIETSLQDIDSRLSPGGSLADAWAHQEGTHPKDRNVEKLQVLLNCMTEIYYQFKKDKAERRLAYNEEQIHKFDKQKLYYHATKAMTHFTDECVKKYEAFLNKSEEWIRKMLHLRKQLLSLTNQCFDIEEEVSKYQEYTNELQETLPQKMFTASSGIKHTMTPIYPSSNTLVEMTLGMKKLKEEMEGVVKELAENNHILERFGSLTMDGGLRNVDCL | 0.17 relative to TBK1 WT
